# In the supplement of paper PMC9170038:
# System: MS2 coat protein
# Test: apparent KD of MS2 coat protein; designed switch direction (-1 OFF switch, 1 ON switch): 1; higher = weaker reporter binding
# Outline: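 Transcription of designed RNA switches on Illumina chips was done by stalled E. coli RNA polymerase. SNAP-549-labelled MS2 coat protein was then titrated in doubling steps from 0.7 or 1.5 nM to 3 µM, with steps of 0.8–1.5 h at the lowest and 10–20 min at the highest concentration. The per-design median over clusters of curve-fitted normalised fluorescence is reported as apparent KD.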
# [1] = Eterna round: R95, input ligand: FMN 200 uM
# [2] = Eterna round: R95, input ligand: microRNA oligo, concentration not stated
# [3] = Eterna round: R95, input ligand: none
# [4] = input ligand: microRNA oligo, concentration not stated
sequence,measurement,setting,value
AACUAUCUAUCUGAGGAUAUCAUGAAAUAAACAUGAGGAUCACCCAUGUGCAGGAAAACUGCAUAUGAGAAGGCAGAUAGAUUGA [salish99_ss2_r3_021] (puzzle: Same State 2),apparent KD of MS2 coat protein,[1],66.6 nM
same,apparent KD of MS2 coat protein,[2],1250 nM
same,apparent KD of MS2 coat protein,[3],2000 nM
"AAGAAACAUGAGGAUCACCCAUGUAAUAAUAUGGGAGGAUAUACAAGGACAAUAGUCAAGGUAGAAGGCCUAAGAA [Mat - Same State 1 - Meechl mod - D142] (Eterna round: R96, puzzle: Same State 1)",apparent KD of MS2 coat protein,[4],123 nM
"AAGAAACAUGAGGAUCACCCAUGUGAGAAUAUGGGAGGAUAUACAAGGACGUAAGUCAAGGUAGAAGGCCUAAGAA [Mat - Same State 1 - Meechl mod - D139] (Eterna round: R96, puzzle: Same State 1)",apparent KD of MS2 coat protein,[4],143 nM
AAGAAUCUAUCUCAGGAUAUCAUGUCAAAGACAUGAGGAUCACCCAUGUACCAGGAAACUGGUUAUGAGAAGGGAGAUAGAUUCA [Mat - Same State 2 - Mod - D31] (puzzle: Same State 2),apparent KD of MS2 coat protein,[1],98.6 nM
same,apparent KD of MS2 coat protein,[2],118 nM
same,apparent KD of MS2 coat protein,[3],79.6 nM
AAGAAUCUAUCUCAGGAUAUCAUGUCAAAGACAUGAGGAUCACCCAUGUACCAGGAAACUGGUUAUGAGAAGGGAGAUAGAUUCG [Mat - Same State 2 - Mod - D37] (puzzle: Same State 2),apparent KD of MS2 coat protein,[1],235 nM
same,apparent KD of MS2 coat protein,[2],134 nM
same,apparent KD of MS2 coat protein,[3],233 nM
AAGACAAGCUUUAUGUUCUUCCUAUUCCAACAUGAGGAUCACCCAUGUAGUCUGACGAUUGUGAGUGUAGUUGAGAU [JR_SHM208A_Sub027] (puzzle: Sensor for hsa-mir-208a),apparent KD of MS2 coat protein,[1],58.3 nM
same,apparent KD of MS2 coat protein,[2],76.9 nM
same,apparent KD of MS2 coat protein,[3],76.5 nM
AAGAGAGAAAUACAGGAUAUGAGGAAAGGAACAUGAGGAUCACCCAUGUAAGAGAAAGGGAAAGAUCAGAAGGGUAGAGAAGAGA [JR_SS2_Sub001] (puzzle: Same State 2),apparent KD of MS2 coat protein,[1],76.6 nM
same,apparent KD of MS2 coat protein,[2],66.1 nM
same,apparent KD of MS2 coat protein,[3],264 nM
"AAGAUGGUUGUAGGAUAUCCACCACUGAAGGGUGGAGAAGGGCACUCCAACAUGAGGAUCACCCAUGUACUACAAGUAGCAUCG [Eternabot solution 26] (Eterna round: R96, puzzle: Same State NG 1)",apparent KD of MS2 coat protein,input ligand: FMN 200 uM,267 nM
same,apparent KD of MS2 coat protein,[4],188 nM
same,apparent KD of MS2 coat protein,input ligand: none,240 nM
"AAGCUGUGUGUAUGGUCAUUGUCAACGGUACAUGAGGAUCACCCAUGUAGCAUUAACCAUCCGACUCUGUUGGAGGU [high scoring solution 6] (Eterna round: R96, puzzle: Sensor for hsa-mir-208a)",apparent KD of MS2 coat protein,input ligand: FMN 200 uM,58.7 nM
same,apparent KD of MS2 coat protein,[4],40.7 nM
same,apparent KD of MS2 coat protein,input ligand: none,51.7 nM
"AAGUGGUCCCAAGGAUAUGUCCAAAAGAAGGGCUGAGACAUGAGGAUCACCCAUGUCUCGGCGGUACAGAAGGUGGAGACAGGU [Solaena] (Eterna round: R96, puzzle: Same State NG 2)",apparent KD of MS2 coat protein,input ligand: FMN 200 uM,10.5 nM
same,apparent KD of MS2 coat protein,[4],10 nM
same,apparent KD of MS2 coat protein,input ligand: none,14 nM
"AAUUAAGAUCAAGGAUAUCACGUCGUUUAGACGUGAGAAGGUGAUAAUUACAUGAGGAUCACCCAUGUAUAACAUGAAUUAAUU [SSNG1/9-B3] (Eterna round: R96, puzzle: Same State NG 1)",apparent KD of MS2 coat protein,input ligand: FMN 200 uM,25.5 nM
same,apparent KD of MS2 coat protein,[4],27.5 nM
same,apparent KD of MS2 coat protein,input ligand: none,32.1 nM
"AAUUAAGAUCGAGGAUAUCACGUCGUUUAGACGUGAGAAGGCGAUCAUAACAUGAGGAUCACCCAUGUAUUACAUGAAUUAAUU [SSNG1/4-B3] (Eterna round: R96, puzzle: Same State NG 1)",apparent KD of MS2 coat protein,input ligand: FMN 200 uM,20.6 nM
same,apparent KD of MS2 coat protein,[4],26.6 nM
same,apparent KD of MS2 coat protein,input ligand: none,29.1 nM
AAUUAUUUACAUGAGGAUCACCCAUGUAUUAUUACAAGCUUUAUCCUCGUUUUAUUUAUUAUUAUUAUUAUUAUUAA [benbell_design1] (puzzle: Sensor for hsa-mir-208a version 2),apparent KD of MS2 coat protein,[1],369 nM
same,apparent KD of MS2 coat protein,[2],33 nM
same,apparent KD of MS2 coat protein,[3],326 nM
AAUUCACGAGCACAGGAUAUGCUUGCCAACACAUGAGGAUCACCCAUGUCGGGCUACUAAUAAGAGCAGAAGGGUGACUCAUGAU [Esticece] (puzzle: Same State 2),apparent KD of MS2 coat protein,[1],36.6 nM
same,apparent KD of MS2 coat protein,[2],342 nM
same,apparent KD of MS2 coat protein,[3],58.2 nM
"AAUUUAAUACAUGAGGAUCACCCAUGUAAAUUAAUUAAGAUCAAGGAUAUCAGCUCGAAUAGAGCUGAGAAGGUGAUCACAUGU [SSNG3/19-A1] (Eterna round: R96, puzzle: Same State NG 3)",apparent KD of MS2 coat protein,[4],244 nM
"AAUUUAAUACAUGAGGAUCACCCAUGUAAAUUAAUUAAGAUCAAGGAUAUCAGCUCGUUUAGAGCUGAGAAGGUGAUCACAUGU [SSNG3/19-A3] (Eterna round: R96, puzzle: Same State NG 3)",apparent KD of MS2 coat protein,[4],163 nM
ACAAGCUUUUUAGGAGAGAAAGGUGGGAUACAUGAGGAUCACCCAUGUAUUGUUGUUAAUAGUGGACCUCGUCUUAU [JR_SHM208A_Sub083] (puzzle: Sensor for hsa-mir-208a),apparent KD of MS2 coat protein,[1],26.5 nM
same,apparent KD of MS2 coat protein,[2],15.7 nM
same,apparent KD of MS2 coat protein,[3],29.2 nM
"ACAUAGGGAACAGGAUAUGGGAAAAUUCCCUACAUGAGGAUCACCCAUGUCCGUAGGGACAACAUCCAGAAGGGUUACCACAUA [Eternabot solution 1] (Eterna round: R96, puzzle: Same State NG 2)",apparent KD of MS2 coat protein,input ligand: FMN 200 uM,211 nM
same,apparent KD of MS2 coat protein,[4],549 nM
same,apparent KD of MS2 coat protein,input ligand: none,656 nM
"ACAUGAAAUUCAGGAUAUUUUGUACCUACAUGUGACAUGAGGAUCACCCAUGUGGUAAGUAUGAGAAAGAAGGGAAAGAUAUGU [Equivalence 10 - Jieux - Same State NG 2] (Eterna round: R96, puzzle: Same State NG 2)",apparent KD of MS2 coat protein,input ligand: FMN 200 uM,25.4 nM
same,apparent KD of MS2 coat protein,[4],41.9 nM
same,apparent KD of MS2 coat protein,input ligand: none,45.6 nM
"ACAUGAGACAAAGGAUAUGGUGUACCUACAUGUGACAUGAGGAUCACCCAUGUGGUAAGUAUGACUCAGAAGGUUGAGAUAUGU [Equivalance 74 - Jieux - Same State NG 2] (Eterna round: R96, puzzle: Same State NG 2)",apparent KD of MS2 coat protein,input ligand: FMN 200 uM,37 nM
same,apparent KD of MS2 coat protein,[4],203 nM
same,apparent KD of MS2 coat protein,input ligand: none,299 nM
"ACAUGAGACCAAGGAUAUCUUGUACCUACAUGUGACAUGAGGAUCACCCAUGUGGUAAGUAUGAGGGAGAAGGUGGAGAUAUGU [Equivalence 25 - Jieux - Same State NG 2] (Eterna round: R96, puzzle: Same State NG 2)",apparent KD of MS2 coat protein,input ligand: FMN 200 uM,26.2 nM
same,apparent KD of MS2 coat protein,[4],18.8 nM
same,apparent KD of MS2 coat protein,input ligand: none,36.7 nM
"ACAUGAGACCAAGGAUAUGUUGUACCUACAUGUGACAUGAGGAUCACCCAUGUGGUAAGUAUGAGGCAGAAGGUGGAGAUAUGU [Equivalence 26 - Jieux - Same State NG 2] (Eterna round: R96, puzzle: Same State NG 2)",apparent KD of MS2 coat protein,input ligand: FMN 200 uM,26.5 nM
same,apparent KD of MS2 coat protein,[4],44.2 nM
same,apparent KD of MS2 coat protein,input ligand: none,59.3 nM
"ACAUGAGACUUAGGAUAUGUUGUACCUACAUGUGACAUGAGGAUCACCCAUGUGGUAAGUAUGACACAGAAGGAAGAGAUAUGU [Equivalance 67 - Jieux - Same State NG 2] (Eterna round: R96, puzzle: Same State NG 2)",apparent KD of MS2 coat protein,[4],18.9 nM
"ACAUGAGAGAUAGGAUAUCGUGUACCUACAUGUGACAUGAGGAUCACCCAUGUGGUAAGUAUGAGCGAGAAGGAUCCGAUAUGU [salish99_SSNG2_r04_1001] (Eterna round: R96, puzzle: Same State NG 2)",apparent KD of MS2 coat protein,input ligand: FMN 200 uM,18.6 nM
same,apparent KD of MS2 coat protein,[4],38.6 nM
same,apparent KD of MS2 coat protein,input ligand: none,66.4 nM
"ACAUGAGAGGGAGGAUAUUUUGUACCUACAUGUGACAUGAGGAUCACCCAUGUGGUAAGUAUGAGAAAGAAGGCCCAGAUAUGU [Equivalence 18 - Jieux - Same State NG 2] (Eterna round: R96, puzzle: Same State NG 2)",apparent KD of MS2 coat protein,input ligand: FMN 200 uM,17.4 nM
same,apparent KD of MS2 coat protein,[4],18.9 nM
same,apparent KD of MS2 coat protein,input ligand: none,27.4 nM
"ACAUGAGGAUCACCCAUGUAGGCUCAGGAAACUGUGCCACAUGAGGAUAUGGAUCCUAAUUGGAUCCAGAAGGCAUGUAUUAUU [Fiskers NG3ss - 22] (Eterna round: R96, puzzle: Same State NG 3)",apparent KD of MS2 coat protein,input ligand: FMN 200 uM,112 nM
same,apparent KD of MS2 coat protein,[4],41.6 nM
same,apparent KD of MS2 coat protein,input ligand: none,66.1 nM
ACCCAAAGUAUAUGGGAACAGGCUUUUUAACAUGAGGAUCACCCAUGUACUCGUCUUAUAAGCAGUCGAAAGACUGC [Sensor 100 - 2] (puzzle: Sensor for hsa-mir-208a),apparent KD of MS2 coat protein,[1],487 nM
same,apparent KD of MS2 coat protein,[2],18 nM
same,apparent KD of MS2 coat protein,[3],906 nM
"ACGCUCCAUGGAGGAUAUGGGCCUGCCCGGGAUACCGGGCCUAACACAUGAGGAUCACCCAUGUCCCAGAAGGCCGCUGGAGCC [Atgeenbite] (Eterna round: R96, puzzle: Same State NG 2)",apparent KD of MS2 coat protein,input ligand: FMN 200 uM,19.2 nM
same,apparent KD of MS2 coat protein,[4],62.3 nM
same,apparent KD of MS2 coat protein,input ligand: none,98.7 nM
